In patent publication CN108586611A (UNIV JINAN; ZHUHAI TAINUO MAIBO BIOTECHNOLOGY CO LTD; …, dated 2018):

Molecular target: 破伤风毒素 (tetanus toxin) (Clostridium tetani, UniProt P04958 2-1315)
Sequence (P04958 2-457 limits assumed, chain 1 of 2): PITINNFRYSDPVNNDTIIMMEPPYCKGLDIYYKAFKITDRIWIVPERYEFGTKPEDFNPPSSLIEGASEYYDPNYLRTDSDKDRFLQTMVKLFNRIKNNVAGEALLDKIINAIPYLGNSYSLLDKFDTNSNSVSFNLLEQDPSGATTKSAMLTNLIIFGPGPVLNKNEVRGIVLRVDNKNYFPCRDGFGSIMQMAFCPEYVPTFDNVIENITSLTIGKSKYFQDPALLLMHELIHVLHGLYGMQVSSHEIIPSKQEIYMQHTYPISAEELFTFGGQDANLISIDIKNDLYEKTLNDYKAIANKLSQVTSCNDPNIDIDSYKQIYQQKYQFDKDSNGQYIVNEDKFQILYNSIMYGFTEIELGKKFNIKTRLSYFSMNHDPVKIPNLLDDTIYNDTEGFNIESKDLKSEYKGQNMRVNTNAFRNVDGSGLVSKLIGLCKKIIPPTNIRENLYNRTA
Sequence (P04958 458-1315 limits assumed, chain 2 of 2): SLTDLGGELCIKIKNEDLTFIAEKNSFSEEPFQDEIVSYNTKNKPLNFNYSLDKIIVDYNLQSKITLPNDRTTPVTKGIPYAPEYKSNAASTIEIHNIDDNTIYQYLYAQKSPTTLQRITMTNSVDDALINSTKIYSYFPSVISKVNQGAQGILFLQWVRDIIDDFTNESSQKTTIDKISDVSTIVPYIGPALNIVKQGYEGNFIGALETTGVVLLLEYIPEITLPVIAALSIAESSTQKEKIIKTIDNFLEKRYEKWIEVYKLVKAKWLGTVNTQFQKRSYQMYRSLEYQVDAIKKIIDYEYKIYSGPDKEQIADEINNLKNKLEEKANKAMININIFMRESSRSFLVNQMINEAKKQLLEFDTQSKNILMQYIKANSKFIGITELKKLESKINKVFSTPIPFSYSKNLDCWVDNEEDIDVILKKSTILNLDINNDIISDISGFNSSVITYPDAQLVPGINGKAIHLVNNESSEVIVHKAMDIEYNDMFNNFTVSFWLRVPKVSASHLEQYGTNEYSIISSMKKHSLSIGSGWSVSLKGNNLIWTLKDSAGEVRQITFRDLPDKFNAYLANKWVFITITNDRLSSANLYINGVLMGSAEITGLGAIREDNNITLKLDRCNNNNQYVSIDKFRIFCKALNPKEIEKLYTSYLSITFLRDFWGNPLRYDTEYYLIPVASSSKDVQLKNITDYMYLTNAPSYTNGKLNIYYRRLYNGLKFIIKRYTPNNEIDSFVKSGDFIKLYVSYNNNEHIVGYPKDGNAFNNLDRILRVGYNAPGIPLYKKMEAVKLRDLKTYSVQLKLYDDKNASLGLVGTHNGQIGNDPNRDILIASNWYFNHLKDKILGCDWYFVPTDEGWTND

B1: TRN1014抗体 (重组全人源抗破伤风毒素单克隆抗体) (antibody, V domains shown)
VH: EVQLVESGGDLVPPGGSLRLSCVASGFTFRNYWMNWVRQAPGQGLQWVASIKDDGTESQYLESVKGRFTISRDNAKNSLSLQMDSLRAEDTALYFCTRVGGFYFGSERYYKGGDDVWGQGTTVTVSS
VL: DIVLTQSPSSLSASVGDRVTFTCRASQTISNYLHWYQQKPGQAPELLIFAASNRQGGVPSRFRGSGSGTDFTLTISPLEADDFATYYCQQSYSSPRTFGQGTKLEIK
Kd: 1.1 nM | koff: 6.07e-05 s⁻¹ | kon: 55100 M⁻¹ s⁻¹
